Data from patent US20150253335.

Legend:
[1] = tested on: coumarin-PPant labeled FITC-ybbR conjugate
[2] = tested on: crypto-A. orientalis CepK labeled with coumarin-PPant
[3] = tested on: crypto-A. parasiticus PksA carrier protein labeled with coumarin-PPant
[4] = tested on: crypto-E. coli AcpP (type II FAS acyl carrier protein labeled with coumarin-PPant)
[5] = tested on: crypto-FITC-ybbR (rhodamine WT PPant-labeled FITC-ybbR)
[6] = tested on: crypto-G. fujikuroi Pks4 carrier protein labeled with coumarin-PPant
[7] = tested on: crypto-L. majuscula JamC labeled with coumarin-PPant
[8] = tested on: crypto-L. majuscula JamF labeled with coumarin-PPant
[9] = tested on: crypto-M. tuberculosis AcpM (Type II) labeled with coumarin-PPant
[10] = tested on: crypto-MBP-PaAcpP (MBP fusion of P. aeruginosa AcpP labeled with coumarin-PPant)
[11] = tested on: crypto-P. agglomerans AdmA labeled with coumarin-PPant
[12] = tested on: crypto-P. agglomerans AdmI labeled with coumarin-PPant
[13] = tested on: crypto-P. falciparum apicoplast ACP (Type II) labeled with coumarin-PPant
[14] = tested on: crypto-P. fluorescens PltL labeled with coumarin-PPant
[15] = tested on: crypto-P. syringae SyrB1 labeled with coumarin-PPant
[16] = tested on: crypto-S. coelicolor ActACP labeled with coumarin-PPant
[17] = tested on: crypto-V. cholerae VibB labeled with coumarin-PPant
[18] = tested on: crypto-ybbR free peptide (coumarin-PPant labeled 11 amino acid ybbR)
[19] = tested on: crypto-ybbR-eGFP fusion with N-terminal 6xHis and C-terminal GFP (coumarin-PPant labeled)
[20] = tested on: crypto-ybbR-eGFP fusion with N-terminal GFP and C-terminal 6xHis (coumarin-PPant labeled)
[21] = tested on: holo-SoAcpP (S. oneidensis type II FAS AcpP)
[22] = tested on: crypto-GFP-ACP (rhodamine-PPT labeled fusion of E. coli ACP with GFP)
[23] = tested on: crypto-Lux-ACP (rhodamine-PPT labeled fusion of bacterial luciferase with E. coli ACP)
[24] = tested on: crypto-MBP-PaACP (rhodamine-PPT labeled MBP fusion of P. aeruginosa ACP)

In the case of “acyl carrier protein hydrolase (AcpH) from Pseudomonas fluorescens NCIMB 10586”, the “AcpH activity with modified ybbR peptide” value [1] is reported as “YES”, the “AcpH qualitative CP activity” value [2] is reported as “no” and the “AcpH qualitative CP activity” value [3] is reported as “YES”. The “AcpH qualitative CP activity” value [4] was “YES”, the Km [5] was 48 µM and the Vmax [5] was 0.17 min⁻¹. The kcat [5] was 0.00283 s⁻¹, the kcat/KM [5] was 50 M⁻¹ s⁻¹ and the “AcpH qualitative CP activity” value [6] was “YES”. The “AcpH qualitative CP activity” value [7] was “YES”, the “AcpH qualitative CP activity” value [8] was “no” and the “AcpH qualitative CP activity” value [9] was “YES”. For the same substance, the “AcpH qualitative CP activity” value [10] was “YES”, the “AcpH qualitative CP activity” value [11] was “no” and the “AcpH qualitative CP activity” value [12] was “YES”. The “AcpH qualitative CP activity” value [13] was “YES”, the “AcpH qualitative CP activity” value [14] was “no” and the “AcpH qualitative CP activity” value [15] was “no”. The “AcpH qualitative CP activity” value [16] was “YES”, the “AcpH qualitative CP activity” value [17] was “no” and the “AcpH activity with modified ybbR peptide” value [18] was “YES”. For the same substance, the “AcpH activity with modified ybbR peptide” value [19] was “YES”, the “AcpH activity with modified ybbR peptide” value [20] was “YES” and the “AcpH qualitative CP activity” value [21] was “YES^†”.
In the case of “acyl carrier protein hydrolase (AcpH) from Pseudomonas aeruginosa PAO1”, the “AcpH activity with modified ybbR peptide” value [1] is reported as “no”, the “AcpH qualitative CP activity” value [2] is reported as “no” and the “AcpH qualitative CP activity” value [3] is reported as “YES”. For the same substance, the “AcpH qualitative CP activity” value [4] was “YES”, the Km [5] was 177 µM and the Vmax [5] was 0.008 min⁻¹. For the same substance, the kcat [5] was 0.000133 s⁻¹, the kcat/KM [5] was 0.783 M⁻¹ s⁻¹ and the “AcpH qualitative CP activity” value [6] was “no”. For the same substance, the “removal of rhodamine-PPT from ACP fusion protein” value (“removal of rhodamine-PPT” below) [22] was “AcpH removed rhodamine-PPT from ACP attached to three different fusion partners ... a C-terminal green fluorescent protein (GFP)”, the “AcpH qualitative CP activity” value [7] was “YES” and the “AcpH qualitative CP activity” value [8] was “no”. For the same substance, the “removal of rhodamine-PPT” value [23] was “AcpH removed rhodamine-PPT from ACP attached to three different fusion partners ... an N-terminal bacterial luciferase fusion (Lux-ACP)”, the “AcpH qualitative CP activity” value [9] was “YES” and the “removal of rhodamine-PPT” value [24] was “AcpH removed rhodamine-PPT from ACP attached to three different fusion partners, an N-terminal maltose binding protein (MBP)”. The “AcpH qualitative CP activity” value [10] was “YES”, the “AcpH qualitative CP activity” value [11] was “no” and the “AcpH qualitative CP activity” value [12] was “no”. For the same substance, the “AcpH qualitative CP activity” value [13] was “YES”, the “AcpH activity with NRPS-type peptidyl carrier proteins” value [14] was “The observed partial activity resulted from PaAcpH with PltL” and the “AcpH qualitative CP activity” value [14] was “YES”. The “AcpH qualitative CP activity” value [15] was “no”, the “AcpH qualitative CP activity” value [16] was “no” and the “AcpH qualitative CP activity” value [17] was “no”. The “AcpH activity with modified ybbR peptide” value [18] was “no”, the “AcpH activity with modified ybbR peptide” value [19] was “no” and the “AcpH activity with modified ybbR peptide” value [20] was “no”. It also gave a Km (holo-E. coli AcpP) of 12 µM, a Vmax (holo-E. coli AcpP) of 0.59 min⁻¹ and a kcat (holo-E. coli AcpP) of 0.00983 s⁻¹. The kcat/KM (holo-E. coli AcpP) was 817 M⁻¹ s⁻¹ and the “AcpH qualitative CP activity” value [21] was “YES^†”.
“acyl carrier protein hydrolase (AcpH) from Cyanothece PCC 7822” was tested, and the “AcpH activity with modified ybbR peptide” value [1] was “YES”, the “AcpH qualitative CP activity” value [2] was “no” and the “AcpH qualitative CP activity” value [3] was “YES”. The “AcpH qualitative CP activity” value [4] was “YES”, the Km [5] was 21 µM and the Vmax [5] was 0.004 min⁻¹. The kcat [5] was 6.67e-05 s⁻¹, the kcat/KM [5] was 3.33 M⁻¹ s⁻¹ and the “AcpH qualitative CP activity” value [6] was “no”. For the same substance, the “AcpH qualitative CP activity” value [7] was “YES”, the “AcpH qualitative CP activity” value [8] was “no” and the “AcpH qualitative CP activity” value [9] was “YES”. The “AcpH qualitative CP activity” value [10] was “YES”, the “AcpH qualitative CP activity” value [11] was “no” and the “AcpH qualitative CP activity” value [12] was “no”. For the same substance, the “AcpH qualitative CP activity” value [13] was “YES”, the “AcpH qualitative CP activity” value [14] was “no” and the “AcpH qualitative CP activity” value [15] was “no”. The “AcpH qualitative CP activity” value [16] was “no”, the “AcpH qualitative CP activity” value [17] was “no” and the “AcpH activity with modified ybbR peptide” value [18] was “YES”. For the same substance, the “AcpH activity with modified ybbR peptide” value [19] was “YES”, the “AcpH activity with modified ybbR peptide” value [20] was “YES” and the Km (holo-E. coli AcpP) was 58 µM. For the same substance, the Vmax (holo-E. coli AcpP) was 1.1 min⁻¹, the kcat (holo-E. coli AcpP) was 3.52 s⁻¹ and the kcat/KM (holo-E. coli AcpP) was 60000 M⁻¹ s⁻¹. For the same substance, the “AcpH qualitative CP activity” value [21] was “YES^†”.
With “annotated hypothetical AcpH homolog from Shewanella oneidensis MR-1” the “AcpH activity with modified ybbR peptide” value [1] was “no”, the “AcpH qualitative CP activity” value [2] was “no” and the “AcpH qualitative CP activity” value [3] was “no”. The “AcpH qualitative CP activity” value [4] was “no”, the “AcpH qualitative CP activity” value [6] was “no” and the “AcpH qualitative CP activity” value [7] was “no”. The “AcpH qualitative CP activity” value [8] was “no”, the “AcpH qualitative CP activity” value [9] was “no” and the “AcpH qualitative CP activity” value [10] was “no”. The “AcpH qualitative CP activity” value [11] was “no”, the “AcpH qualitative CP activity” value [12] was “no” and the “AcpH qualitative CP activity” value [13] was “no”. For the same substance, the “AcpH qualitative CP activity” value [14] was “no”, the “AcpH qualitative CP activity” value [15] was “no” and the “AcpH qualitative CP activity” value [16] was “no”. The “AcpH qualitative CP activity” value [17] was “no”, the “AcpH activity with modified ybbR peptide” value [18] was “no” and the “AcpH activity with modified ybbR peptide” value [19] was “no”. For the same substance, the “AcpH activity with modified ybbR peptide” value [20] was “no”, the Vmax (holo-E. coli AcpP) was “NC†” and the “AcpH qualitative CP activity” value [21] was “no”.
